{"source": "patent US20100080812A1", "about": "(ROCHE PALO ALTO, published 2010)", "molecules": {"B1": {"name": "Mab 106 (antibody, V domains shown)", "VH": "EVQLVESGGGLVQPGGSLRLSCAASGFTFSDYTMLWVRQAPGKGLEWVAIIKSGGSYSYYPDSVKGRFTISRDNAKNSLYLQMNSLRAEDTAVYYCARDGDYGSSYGAMDYWGQGTLVTVSS", "VL": "DIQMTQSPSSLSASVGDRVTITCRASQDINSYLSWFQQKPGKAPKSLIYRANRLVDGVPSRFSGSGSGQDYSLTISSLQPEDFATYYCLQYDAFPPYTFGQGTKLEIK", "notes": "Humanized version of 3C1; Only the variable domains are tied to it; also called Mab K106"}}, "key": {"[1]": {"target": "recombinant human IL-17 (Peprotech #200-17) (human) (UniProt Q16552)", "assay": "ELISA, coated IL-17 subtype, antibody 10 µg/ml, OD 405/492 nm"}, "human IL-17B": {"target": "T1, human IL-17B (human, UniProt Q9UHF5 21-180, limits assumed)", "T1 sequence (looked up)": "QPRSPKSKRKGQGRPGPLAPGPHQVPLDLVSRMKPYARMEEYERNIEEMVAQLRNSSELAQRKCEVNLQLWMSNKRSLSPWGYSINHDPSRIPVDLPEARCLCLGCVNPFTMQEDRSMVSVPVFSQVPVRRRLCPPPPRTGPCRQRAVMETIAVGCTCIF", "assay": "ELISA, coated IL-17 subtype, antibody 10 µg/ml, OD 405/492 nm"}, "human IL-17C [2]": {"target": "T2, human IL-17C (human, UniProt Q9P0M4 19-197, limits assumed)", "T2 sequence (looked up)": "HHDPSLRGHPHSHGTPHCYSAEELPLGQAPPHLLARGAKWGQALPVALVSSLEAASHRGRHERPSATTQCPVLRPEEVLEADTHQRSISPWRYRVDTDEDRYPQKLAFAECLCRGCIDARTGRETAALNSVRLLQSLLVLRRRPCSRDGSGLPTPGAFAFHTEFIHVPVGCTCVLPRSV", "assay": "ELISA, coated IL-17 subtype, antibody 10 µg/ml, OD 405/492 nm"}, "human IL-17D": {"target": "T3, human IL-17D (human, UniProt Q8TAD2 18-202, limits assumed)", "T3 sequence (looked up)": "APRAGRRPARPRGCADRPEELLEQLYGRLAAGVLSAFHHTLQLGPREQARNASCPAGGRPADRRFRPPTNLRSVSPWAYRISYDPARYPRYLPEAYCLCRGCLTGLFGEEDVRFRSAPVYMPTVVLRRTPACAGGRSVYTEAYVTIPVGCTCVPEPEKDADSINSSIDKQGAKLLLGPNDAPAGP", "assay": "ELISA, coated IL-17 subtype, antibody 10 µg/ml, OD 405/492 nm"}, "human IL-17E": {"target": "T4, human IL-17E (human, UniProt Q9H293 33-177, limits assumed)", "T4 sequence (looked up)": "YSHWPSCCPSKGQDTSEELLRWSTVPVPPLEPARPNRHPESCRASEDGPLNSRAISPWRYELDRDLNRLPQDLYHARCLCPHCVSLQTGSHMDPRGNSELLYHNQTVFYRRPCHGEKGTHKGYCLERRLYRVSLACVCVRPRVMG", "assay": "ELISA, coated IL-17 subtype, antibody 10 µg/ml, OD 405/492 nm"}, "human IL-17F [3]": {"target": "T5, human IL-17F (human, UniProt Q96PD4 31-163, limits assumed)", "T5 sequence (looked up)": "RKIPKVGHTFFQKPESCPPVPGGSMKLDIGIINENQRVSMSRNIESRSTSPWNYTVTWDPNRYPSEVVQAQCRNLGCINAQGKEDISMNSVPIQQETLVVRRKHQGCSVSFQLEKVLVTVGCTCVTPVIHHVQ", "assay": "ELISA, coated IL-17 subtype, antibody 10 µg/ml, OD 405/492 nm"}, "[4]": {"target": "recombinant human IL-17 (Peprotech #200-17) (human) (UniProt Q16552)", "assay": "cell-based or functional assay"}, "[5]": {"target": "cynomolgus IL-17A (cynomolgus monkey)", "assay": "cell-based or functional assay"}, "[6]": {"target": "T6, recombinant human IL-17 (Peprotech #200-17) (human, UniProt Q16552 20-155)", "T6 sequence (looked up)": "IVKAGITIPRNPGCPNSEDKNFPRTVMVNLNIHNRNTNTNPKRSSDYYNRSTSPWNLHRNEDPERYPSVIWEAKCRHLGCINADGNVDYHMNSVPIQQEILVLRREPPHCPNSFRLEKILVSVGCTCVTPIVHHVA", "assay": "cell-based or functional assay"}, "[7]": {"target": "T6, recombinant human IL-17 (Peprotech …)", "assay": "cell-based or functional assay", "remark": "listed apart in the source"}, "cynomolgus IL-17A": {"target": "T7, cynomolgus IL-17A (cynomolgus monkey, UniProt A0A2K5TTB0 24-155)", "T7 sequence": "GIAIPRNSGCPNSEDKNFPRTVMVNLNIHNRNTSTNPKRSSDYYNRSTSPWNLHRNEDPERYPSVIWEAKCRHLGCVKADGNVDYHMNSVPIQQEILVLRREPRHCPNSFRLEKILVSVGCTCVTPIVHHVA", "assay": "cell-based or functional assay"}, "human IL-17C [8]": {"target": "T2, human IL-17C", "assay": "ELISA on immobilized IL-17 variant"}, "human IL-17F [9]": {"target": "T5, human IL-17F", "assay": "ELISA on immobilized IL-17 variant"}, "[10]": {"target": "T6, recombinant human IL-17 (Peprotech …)", "assay": "ELISA, coated IL-17 subtype, antibody 10 µg/ml, OD 405/492 nm"}}, "data": [{"molecule": "Mab 16-7178-85 of eBioscience (antibody)", "values": [{"measurement": "Binding (IL-17A binding set as 100) (% (IL-17A binding set as 100))", "setting": "[1]", "value": 100}, {"measurement": "Binding (IL-17A binding set as 100) (% (IL-17A binding set as 100))", "setting": "human IL-17B", "value": 7}, {"measurement": "Binding (IL-17A binding set as 100) (% (IL-17A binding set as 100))", "setting": "human IL-17C [2]", "value": 97}, {"measurement": "Binding (IL-17A binding set as 100) (% (IL-17A binding set as 100))", "setting": "human IL-17D", "value": 6}, {"measurement": "Binding (IL-17A binding set as 100) (% (IL-17A binding set as 100))", "setting": "human IL-17E", "value": 5}, {"measurement": "Binding (IL-17A binding set as 100) (% (IL-17A binding set as 100))", "setting": "human IL-17F [3]", "value": 5}]}, {"molecule": "MAB 317 of R&D Systems (antibody)", "values": [{"measurement": "IL-6 Neutralization IC50", "setting": "[4]", "value": 5.5, "unit": "nM"}, {"measurement": "IL-8 Neutralization IC50", "setting": "[4]", "value": 5.5, "unit": "nM"}, {"measurement": "Binding (IL-17A binding set as 100) (% (IL-17A binding set as 100))", "setting": "[1]", "value": 100}, {"measurement": "Binding (IL-17A binding set as 100) (% (IL-17A binding set as 100))", "setting": "human IL-17B", "value": 0}, {"measurement": "Binding (IL-17A binding set as 100) (% (IL-17A binding set as 100))", "setting": "human IL-17C [2]", "value": 0}, {"measurement": "Binding (IL-17A binding set as 100) (% (IL-17A binding set as 100))", "setting": "human IL-17D", "value": 0}, {"measurement": "Binding (IL-17A binding set as 100) (% (IL-17A binding set as 100))", "setting": "human IL-17E", "value": 0}, {"measurement": "Binding (IL-17A binding set as 100) (% (IL-17A binding set as 100))", "setting": "human IL-17F [3]", "value": 0}]}, {"molecule": "NVP-AIN-497 (WO 2006013107) (antibody)", "values": [{"measurement": "IL-6 Neutralization IC50 (nM) (using 100 ng/ml IL-17A)", "setting": "[5]", "value": "> 10", "unit": "nM"}, {"measurement": "IL-8 Neutralization IC50 (nM) (using 100 ng/ml IL-17A)", "setting": "[5]", "value": "> 10", "unit": "nM"}, {"measurement": "IL-6 Neutralization IC50 (nM) (using 100 ng/ml IL-17A)", "setting": "[4]", "value": 5, "unit": "nM"}, {"measurement": "IL-8 Neutralization IC50 (nM) (using 100 ng/ml IL-17A)", "setting": "[4]", "value": 4.2, "unit": "nM"}, {"measurement": "Binding (IL-17A binding set as 100) (% (IL-17A binding set as 100))", "setting": "[1]", "value": 100}, {"measurement": "Binding (IL-17A binding set as 100) (% (IL-17A binding set as 100))", "setting": "human IL-17B", "value": 2}, {"measurement": "Binding (IL-17A binding set as 100) (% (IL-17A binding set as 100))", "setting": "human IL-17C [2]", "value": 2}, {"measurement": "Binding (IL-17A binding set as 100) (% (IL-17A binding set as 100))", "setting": "human IL-17D", "value": 0}, {"measurement": "Binding (IL-17A binding set as 100) (% (IL-17A binding set as 100))", "setting": "human IL-17E", "value": 3}, {"measurement": "Binding (IL-17A binding set as 100) (% (IL-17A binding set as 100))", "setting": "human IL-17F [3]", "value": 62}]}, {"molecule": "B1", "values": [{"measurement": "IL-6 Neutralization IC50", "setting": "[6]", "value": 1, "unit": "nM"}, {"measurement": "IL-8 Neutralization IC50", "setting": "[6]", "value": 1, "unit": "nM"}, {"measurement": "IL-6 Neutralization IC50 (nM) (using 100 ng/ml IL-17A)", "setting": "[7]", "value": 2.1, "unit": "nM"}, {"measurement": "IL-8 Neutralization IC50 (nM) (using 100 ng/ml IL-17A)", "setting": "[7]", "value": 1.6, "unit": "nM"}, {"measurement": "IL-6 Neutralization IC50 (nM) (using 100 ng/ml IL-17A)", "setting": "cynomolgus IL-17A", "value": 0.7, "unit": "nM"}, {"measurement": "IL-8 Neutralization IC50 (nM) (using 100 ng/ml IL-17A)", "setting": "cynomolgus IL-17A", "value": 0.6, "unit": "nM"}, {"measurement": "binding result", "setting": "human IL-17C [8]", "value": "no binding (tested: S/N ratio lower than 7:1)"}, {"measurement": "binding result", "setting": "human IL-17F [9]", "value": "no binding (tested: S/N ratio lower than 7:1)"}, {"measurement": "Binding (IL-17A binding set as 100)", "setting": "[10]", "value": "100 % (IL-17A binding set as 100)"}, {"measurement": "Binding (IL-17A binding set as 100)", "setting": "human IL-17B", "value": "0 % (IL-17A binding set as 100)"}, {"measurement": "Binding (IL-17A binding set as 100)", "setting": "human IL-17C [2]", "value": "0 % (IL-17A binding set as 100)"}, {"measurement": "Binding (IL-17A binding set as 100)", "setting": "human IL-17D", "value": "0 % (IL-17A binding set as 100)"}, {"measurement": "Binding (IL-17A binding set as 100)", "setting": "human IL-17E", "value": "1 % (IL-17A binding set as 100)"}, {"measurement": "Binding (IL-17A binding set as 100)", "setting": "human IL-17F [3]", "value": "0 % (IL-17A binding set as 100)"}]}]}
